Read-outs that look alike come from different tables or passages of the source.
Columns and labels:
Assay in all cases: mMAPS
[1] = target: endogenous EGFR (HeLa cells) (human (endogenous in HeLa)) (UniProt P00533)
[2] = target: endogenous EGFR phosphorylated at Tyr1068 (HeLa cells) (human (endogenous in HeLa)) (UniProt P00533)
[3] = target: endogenous EGFR (HeLa cells) (human (endogenous in HeLa)) (UniProt P00533); remark: listed apart in the source
[4] = target: endogenous EGFR phosphorylated at Tyr1068 (HeLa cells) (human (endogenous in HeLa)) (UniProt P00533); remark: listed apart in the source

## A647-conjugated EGF (ligand)
[1]
  percent of total detected EGFR events that are EGF-EGFR: 3.3%
[2]
  percent of total detected EGFR events that are EGF-EGFR-pTyr1068: 1.27%
[3]
  percent of total detected EGFR events that are EGF-EGFR: 4.35%
[4]
  percent of total detected EGFR events that are EGF-EGFR-pTyr1068: 2.64%

Source: paper PMC4120848
